According to patent US20230212554A1 (published 2023):

Tests used:
[1] = target: T1, NP of A/California/07/2009(H1N1/H1S) (influenza A virus, NYMC X-181 derived …); assay: ELISA on virus-infected fixed MDCK cells
[2] = target: T1, NP of A/California/07/2009(H1N1/H1S); assay: sandwich ELISA, capture IgG; NP of lysed virus titrated; HRP-NP16 detection
[3] = target: T1, NP of A/California/07/2009(H1N1/H1S); assay: sandwich ELISA, capture IgG; NP of lysed virus titrated; HRP-NP17 detection

T1 sequence (P03466 whole entry): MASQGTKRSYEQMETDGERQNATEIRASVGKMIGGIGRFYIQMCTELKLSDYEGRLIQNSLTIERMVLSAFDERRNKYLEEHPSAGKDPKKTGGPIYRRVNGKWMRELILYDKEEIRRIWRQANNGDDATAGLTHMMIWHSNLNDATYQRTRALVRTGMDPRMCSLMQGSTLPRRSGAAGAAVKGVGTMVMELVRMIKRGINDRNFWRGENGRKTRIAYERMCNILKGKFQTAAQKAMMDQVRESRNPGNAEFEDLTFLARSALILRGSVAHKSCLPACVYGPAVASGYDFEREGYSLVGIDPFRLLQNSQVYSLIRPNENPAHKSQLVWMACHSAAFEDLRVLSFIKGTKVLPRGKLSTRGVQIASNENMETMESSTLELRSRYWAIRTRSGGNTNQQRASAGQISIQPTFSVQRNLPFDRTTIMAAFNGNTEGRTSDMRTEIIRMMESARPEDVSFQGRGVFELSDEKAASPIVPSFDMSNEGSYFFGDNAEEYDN

B1: NP13 (antibody, V domains shown)
VH: EVQLVESGGGLVQPGGSLRLSCAASGFTINNYGIHWVRQAPGKGLEWVASIGPYGGSTYYADSVKGRFTISADTSKNTAYLQMNSLRAEDTAVYYCARFGYFNWLDMDYWGQGTLVTVSS
VL: DIQMTQSPSSLSASVGDRVTITCRASQDVGYWVAWYQQKPGKAPKLLISSASGLYSGVPSRFSGSGSGTDFTLTISSLQPEDFATYYCQQGWDWPITFGQGTKVEIKR
EC50 [1]: 1.68 nM
EC50 [2]: 168 nM
EC50 [3]: 47.9 nM

B2: NP12 (antibody, V domains shown)
VH: EVQLVESGGGLVQPGGSLRLSCAASGFTIDNGYIHWVRQAPGKGLEWVASIWPSWGSTYYADSVKGRFTISADTSKNTAYLQMNSLRAEDTAVYYCARGFYYYGDYWGQGTLVTVSS
VL: DIQMTQSPSSLSASVGDRVTITCRASQDVGGNVAWYQQKPGKAPKLLISSTAGLYSGVPSRFSGSGSGTDFTLTISSLQPEDFATYYCQQYYDFPLTFGQGTKVEIKR
EC50 [1]: 6.09 nM

B3: NP21 (antibody, V domains shown)
VH: EVQLVESGGGLVQPGGSLRLSCAASGFTINGYGIHWVRQAPGKGLEWVAGIWPYGGSTFYADSVKGRFTISADTSKNTAYLQMNSLRAEDTAVYYCARFYNNHGGIMDYWGQGTLVTVSS
VL: DIQMTQSPSSLSASVGDRVTITCRASQDVYFYVAWYQQKPGKAPKLLIYGSRWLYSGVPSRFSGSGSGTDFTLTISSLQPEDFATYYCQQYSNFPVTFGQGTKVEIKR
EC50 [1]: 0.73 nM
EC50 [2]: 2.67 nM
EC50 [3]: 0.815 nM

B4: NP3 (antibody, V domains shown)
VH: EVQLVESGGGLVQPGGSLRLSCAASGFTISNYGIHWVRQAPGKGLEWVAGIWPFGGFTSYADSVKGRFTISADTSKNTAYLQMNSLRAEDTAVYYCARFHWNDHGYMDYWGQGTLVTVSS
VL: DIQMTQSPSSLSASVGDRVTITCRASQDVGWYVAWYQQKPGKAPKLLIYSTTGLYSGVPSRFSGSGSGTDFTLTISSLQPEDFATYYCQQYYNYPITFGQGTKVEIKR
EC50 [1]: 0.55 nM
EC50 [2]: 1.96 nM
EC50 [3]: 0.834 nM

B5: NP19 (antibody, V domains shown)
VH: EVQLVESGGGLVQPGGSLRLSCAASGFTISSWGIHWVRQAPGKGLEWVAGIGPFWGYTSYADSVKGRFTISADTSKNTAYLQMNSLRAEDTAVYYCARFGVDNYGYMDYWGQGTLVTVSS
VL: DIQMTQSPSSLSASVGDRVTITCRASQDVSGWVAWYQQKPGKAPKLLISWSTGLYSGVPSRFSGSGSGTDFTLTISSLQPEDFATYYCQQYFNFPVTFGQGTKVEIKR
EC50 [1]: 0.304 nM
EC50 [2]: 5.37 nM
EC50 [3]: 0.863 nM

B6: NP4 (antibody, V domains shown)
VH: EVQLVESGGGLVQPGGSLRLSCAASGFTISNSSIHWVRQAPGKGLEWVAGIGPSGGYTFYADSVKGRFTISADTSKNTAYLQMNSLRAEDTAVYYCARFHSHNSYYSYSHYGYMDYWGQGTLVTVSS
VL: DIQMTQSPSSLSASVGDRVTITCRASQDVGWGVAWYQQKPGKAPKLLISGPSSLYSGVPSRFSGSGSGTDFTLTISSLQPEDFATYYCQQYFNYPITFGQGTKVEIKR
EC50 [1]: 4.02 nM
EC50 [2]: 2.11 nM
EC50 [3]: 0.862 nM

B7: NP18 (antibody, V domains shown)
VH: EVQLVESGGGLVQPGGSLRLSCAASGFTISGGGIHWVRQAPGKGLEWVASIWPSWGSTSYADSVKGRFTISADTSKNTAYLQMNSLRAEDTAVYYCARFHNGGFLVMDYWGQGTLVTVSS
VL: DIQMTQSSSSLSASVGDRVTITCRASQDVGYYVAWYQQKPGKAPKLLIYGPRFLYSGVPSRFSGSGSGTDFTLTISSLQPEDFATYYCQQYSNWPITFGQGTKVEIKR
EC50 [1]: 0.168 nM

B8: NP7 (antibody, V domains shown)
VH: EVQLVESGGGLVQPGGSLRLSCAASGFTISNGGIHWVRQAPGKGLEWVAGIGPYGGFTSYADSVKGRFTISADTSKNTAYLQMNSLRAEDTAVYYCARFYSNYYGYHGVMDYWGQGTLVTVSS
VL: DIQMTQSPSSLSASVGDRVTITCRASQDVFGWVAWYQQKPGKAPKLLISYSASLYSGVPSRFSGSGSGTDFTLTISSLQPEDFATYYCQQYFNYPLTFGQGTKVEIKR
EC50 [2]: 2.36 nM
EC50 [3]: 0.9 nM

B9: NP8 (antibody, V domains shown)
VH: EVQLVESGGGLVQPGGSLRLSCAASGFTINSFGIHWVRQAPGKGLEWVAGIGPFGGSTFYADSVKGRFTISADTSKNTAYLQMNSLRAEDTAVYYCARGFYWFDYWGQGTLVTVSS
VL: DIQMTQSPSSLSASVGDRVTITCRASQDVDDSVAWYQQKPGKAPKLLIYWTRYLYSGVPSRFSGSGSGTDFTLTISSLQPEDFATYYCQQGYNYPLTFGQGTKVEIKR
EC50 [2]: 2.33 nM
EC50 [3]: 0.752 nM

B10: NP16 (antibody, V domains shown)
VH: EVQLVESGGGLVQPGGSLRLSCAASGFTIGNSGIHWVRQAPGKGLEWVAWIGPYWGFTSYADSVKGRFTISADTSKNTAYLQMNSLRAEDTAVYYCARFGNHWHLFMDYWGQGTLVTVSS
VL: DIQMTQSPSSLSASVGDRVTITCRASQDVGSYVAWYQQKPGKAPKLLISWTTGLYSGVPSRFSGSGSGTDFTLTISSLQPEDFATYYCQQYFSYPVTFGQGTKVEIKR
EC50 [1]: 0.239 nM
EC50 [2]: 4.41 nM
EC50 [3]: 0.919 nM

B11: NP17 (antibody, V domains shown)
VH: EVQLVESGGGLVQPGGSLRLSCAASGFTISGGSIHWVRQAPGKGLEWVASIWPFGGSTFYADSVKGRFTISADTSKNTAYLQMNSLRAEDTAVYYCARFGHGHNVIMDYWGQGTLVTVSS
VL: DIQMTQSPSSLSASVGDRVTITCRASQDVGYSVAWYQQKPGKAPKLLISSPGGLYSGVPSRFSGSGSGTDFTLTISSLQPEDFATYYCQQYYDYPVTFGQGTKVEIKR
EC50 [1]: 28.7 nM
EC50 [2]: 3.28 nM
EC50 [3]: 1.02 nM

B12: NP14 (antibody, V domains shown)
VH: EVQLVESGGGLVQPGGSLRLSCAASGFTIDNGGIHWVRQAPGKGLEWVASIWPSWGSTSYADSVKGRFTISADTSKNTAYLQMNSLRAEDTAVYYCARFNFGVFGVMDYWGQGTLVTVSS
VL: DIQMTQSPSSLSASVGDRVTITCRASQDVDNDVAWYQQKPGKAPKLLIYGPRGLYSGVPSRFSGSGSGTDFTLTISSLQPEDFATYYCQQYSSWPLTFGQGTKVEIKR
EC50 [1]: 3.43 nM

B13: NP15 (antibody, V domains shown)
VH: EVQLVESGGGLVQPGGSLRLSCAASGFTISNWYIHWVRQAPGKGLEWVAGIGPYGGSTYYADSVKGRFTISADTSKNTAYLQMNSLRAEDTAVYYCARFHWDHLHGMDYWGQGTLVTVSS
VL: DIQMTQSPSSLSASVGDRVTITCRASQDVDNNVAWYQQKPGKAPKLLISYSTGLYSGVPSRFSGSGSGTDFTLTISSLQPEDFATYYCQQYWNYPITFGQGTKVEIKR
EC50 [1]: 0.249 nM
EC50 [2]: 2.79 nM
EC50 [3]: 0.806 nM

B14: NP9 (antibody, V domains shown)
VH: EVQLVESGGGLVQPGGSLRLSCAASGFTINNGWIHWVRQAPGKGLEWVAGIGPYWGFTSYADSVKGRFMISADTSKNTAYLQMNSLRAEDTAVYYCARFDSDHDHHYSYYYYYDNGYMDYWGQGTLVTVSS
VL: DIQMTQSPSSLSASVGDRVTITCRASQDVWFSVAWYQQKPGKAPKLLIYGTTSLYSGVPSRFSGSGSGTDFTLTISSLQPEDFATYYCQQYFNYPLTFGQGTKVEIKR
EC50 [1]: 2.14 nM
EC50 [2]: 53.9 nM

B15: NP10 (antibody, V domains shown)
VH: EVQLVESGGGLVQPGGSLRLSCAASGFTIDNGSIHWVRQAPGKGLEWVAWIWPFGGSTSYADSVKGRFTISADTSKNTAYLQMNSLRAEDTAVYYCARSWSSGYDYWGQGTLVTVSS
VL: DIQMTQSPSSLSASVGDRVTITCRASQDVSWSVAWYQQKPGKAPKLLISGSTWLYSGVPSRFSGSGSGTDFTLTISSLQPEDFATYYCQQYSNSPITFGQGTKVEIKR
EC50 [2]: 3.3 nM
EC50 [3]: 0.798 nM

B16: NP5 (antibody, V domains shown)
VH: EVQLVESGGGLVQPGGSLRLSCAASGFTISNGSIHWVRQAPGKGLEWVAGIWPSGGSTSYADSVKGRFTISADTINNSAYLQMNSLRAEDTAVYYCARWNYWGQGTLVTVSS
VL: DIQMTQSPSSLSASVGDRVTITCRASQDVGWSVAWYQQKPGKAPKLLIYGSRWLYSGVPSRFSGSGSGTDFTLTISSLQPEDFATYYCQQGYNGPLTFGQGTKVEIKR
EC50 [2]: 3.32 nM
EC50 [3]: 0.918 nM

B17: NP6 (antibody, V domains shown)
VH: EVQLVESGGGLVQPGGSLRLSCAASGFTINDGSIHWVRQAPGKGLEWVAGIGPFGGFTYYADSVKGRFTISADTSKNTAYLQMNSLRAEDTAVYYCARSGYSGSFDYWGQGTLVTVSS
VL: DIQMTQSPSSLSASVGDRVTITCRASQDVYFGVAWYQQKPGKAPKLLIYGTSYLYSGVPSRFSGSGSGTDFTLTISSLQPEDFATYYCQQFSNWPITFGQGTKVEIKR
EC50 [1]: 6.46 nM
EC50 [2]: 3.12 nM
EC50 [3]: 3.07 nM
